Where no end group is shown, it is not given here.
Key:
1p21-DMARYYSALR = target: T1, 1p21-DMARYYSALR; assay: indirect ELISA, peptide coated on the plate (20 µg/mL), MAb 5E12-B7 at 1 µg/mL, O.D. 450 nm
T1 construct: NPY residues 16-25; also called Peptide 1p21 (10 mer shifting across NPY)
T1 peptide: DMARYYSALR-NH2
Experimental: (§1) ELISA was used to map the reactivity of purified MAb 5E12-B7 against the peptides described in Table 3. Briefly, ELISA microwell plates (96-well Maxisorp, Nunc) were coated overnight at 4° C. with 50 μL of mapping peptides (Table 3) diluted to 20 μg/mL in carbonate coating buffer (CCB). Between each of the following steps, microwell plates were washed three times with PBST using a plate washer (BioTek). Coated wells were blocked with 200 μL PBS containing 5% w/v skim milk (Diploma). Blocked wells were incubated for 1 hr with 50 μL of MAb 5E12-B7 diluted to 1 μg/mL in skim milk/PBST. Wells were then incubated for 1 hr with 50 μL Peroxidase-conjugated AffiniPure F(ab)2 fragment goat anti-mouse secondary antibody (Jackson) diluted 1:5000 in skim milk/PBST. Ig binding was detected by incubation of wells with 50 μL TMB substrate (Becton Dickinson). Substrate reaction was stopped after 15 min with 50 μL 1M H₂SO₄ and O.D. 450 nm was measured.

1p23-ARYYSALRHY = target: T2, 1p23-ARYYSALRHY; assay: as above
T2 construct: NPY residues 18-27; also called Peptide 1p23 (10 mer shifting across NPY)
T2 peptide: ARYYSALRHY-NH2
Experimental: as §1

1p28-ALRHYINLIT = target: T3, 1p28-ALRHYINLIT; assay: as above
T3 construct: NPY residues 23-32; also called Peptide 1p28 (10 mer shifting across NPY)
T3 peptide: ALRHYINLIT-NH2
Experimental: as §1

1p29-LRHYINLITR = target: T4, 1p29-LRHYINLITR; assay: as above
T4 construct: NPY residues 24-33; also called Peptide 1p29 (10 mer shifting across NPY)
T4 peptide: LRHYINLITR-NH2
Experimental: as §1

1p22-MARYYSALRH = target: T5, 1p22-MARYYSALRH; assay: as above
T5 construct: NPY residues 17-26; also called Peptide 1p22 (10 mer shifting across NPY)
T5 peptide: MARYYSALRH-NH2
Experimental: as §1

1p27-SALRHYINLI = target: T6, 1p27-SALRHYINLI; assay: as above
T6 construct: NPY residues 22-31; also called Peptide 1p27 (10 mer shifting across NPY)
T6 peptide: SALRHYINLI-NH2
Experimental: as §1

1p31-HYINLITRQR = target: T7, 1p31-HYINLITRQR; assay: as above
T7 construct: NPY residues 26-35; also called Peptide 1p31 (10 mer shifting across NPY)
T7 peptide: HYINLITRQR-NH2
Experimental: as §1

1p30-RHYINLITRQ = target: T8, 1p30-RHYINLITRQ; assay: as above
T8 construct: NPY residues 25-34; also called Peptide 1p30 (10 mer shifting across NPY)
T8 peptide: RHYINLITRQ-NH2
Experimental: as §1

1p19-AEDMARYYSA = target: T9, 1p19-AEDMARYYSA; assay: as above
T9 construct: also called Peptide 1p19 (10 mer shifting across NPY)
T9 peptide: AEDMARYYSA-NH2
Experimental: as §1

1p25-YYSALRHYIN = target: T10, 1p25-YYSALRHYIN; assay: as above
T10 construct: NPY residues 20-29; also called Peptide 1p25 (10 mer shifting across NPY)
T10 peptide: YYSALRHYIN-NH2
Experimental: as §1

1p24-RYYSALRHYI = target: T11, 1p24-RYYSALRHYI; assay: as above
T11 construct: NPY residues 19-28; also called Peptide 1p24 (10 mer shifting across NPY)
T11 peptide: RYYSALRHYI-NH2
Experimental: as §1

1p20-EDMARYYSAL = target: T12, 1p20-EDMARYYSAL; assay: as above
T12 construct: NPY residues 15-24; also called Peptide 1p20 (10 mer shifting across NPY)
T12 peptide: EDMARYYSAL-NH2
Experimental: as §1

1p26-YSALRHYINL = target: T13, 1p26-YSALRHYINL; assay: as above
T13 construct: NPY residues 21-30; also called Peptide 1p26 (10 mer shifting across NPY)
T13 peptide: YSALRHYINL-NH2
Experimental: as §1

[1] = target: T14, Peptide 2p16 (Poly Ala with shrinking NPY C term); assay: indirect ELISA, peptide coated at 20 ug/mL, MAb at 1 ug/mL
T14 construct: 16 alanines followed by Y-amide
T14 peptide: AAAAAAAAAAAAAAAAY-NH2
Experimental: as §1

[2] = target: T15, Peptide 2p17 (HBY with polyAlanine C terminus) (C-terminal amide (-NH2)); assay: as above
T15 construct: HBY with four alanine residues added to the C-terminus
T15 peptide: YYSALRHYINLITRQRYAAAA
Experimental: as §1

B1: MAb 5E12-B7 (antibody, V domains shown)
VH: QVQLQHPGTEVVKPGASVKLSCKASGYTFTNYWMHWVKQRPGQGLEWIGNIDPSNGGTNYNEKFKSKATLTVDKSSSTAYMQLSSLTSEDSAVYYCASFAYWGQGTLVTVSA
VL: DIQMTQSPASLSASVGETVTITCRASGNIHNYLAWYQQKQGKSPQLLVYNAKTLADGVPSRFSGSGSGTQYSLKISSLRPEDFGSYYCQHFWSPPFTFGSGTKLEIK
notes: Biotinylated for the Biacore and Octet assays; also called PYY/NPY antibody (5E12); anti-NPY/PYY antibody 5E12
B1: no binding (tested: 1 µg/mL) (1p21-DMARYYSALR); no binding (tested: 1 µg/mL) (1p23-ARYYSALRHY); no binding (tested: 1 µg/mL) (1p28-ALRHYINLIT). B1: no binding (tested: 1 µg/mL) (1p29-LRHYINLITR); no binding (tested: 1 µg/mL) (1p22-MARYYSALRH); no binding (tested: 1 µg/mL) (1p27-SALRHYINLI). B1: no binding (tested: 1 µg/mL) (1p31-HYINLITRQR); no binding (tested: 1 µg/mL) (1p30-RHYINLITRQ); no binding (tested: 1 µg/mL) (1p19-AEDMARYYSA). B1: no binding (tested: 1 µg/mL) (1p25-YYSALRHYIN); no binding (tested: 1 µg/mL) (1p24-RYYSALRHYI); no binding (tested: 1 µg/mL) (1p20-EDMARYYSAL). B1: no binding (tested: 1 µg/mL) (1p26-YSALRHYINL); no binding [1]; no binding [2].
